Biological target: Firefly Luciferase, heat-aggregated [luciferase: P08659]
Assay: co-sedimentation; 1.5 μM ClpG-DWB with 2 μM aggregated Luciferase in buffer A (50 mM Tris pH 7.5, 50 mM KCl, 10 mM MgCl2, 2 mM DTT), 2 mM ATP, 25 °C, 10 min; 1 μM DnaK with 0.2 μM DnaJ added to selected reactions; centrifugation at 13,000 rpm, pellet washed once; SDS-PAGE, Coomassie, ImageJ; control without aggregated Luciferase

P. aeruginosa ClpGGI-E383A/E732A (enzyme)
fold reduction of binding on addition of DnaK (with DnaJ): 1.86 fold

Source: paper PMC6995612
